Assay [1] concerns the target SARS-CoV-2 Delta + T51I + T95I spike protein (authentic virus) (SARS-CoV-2) (UniProt P0DTC2). The experiment in a line: cell-based or functional assay.
For assay [2], the target named is SARS-CoV-2 D614G spike protein (authentic virus) (SARS-CoV-2) (UniProt P0DTC2). Nature of the assay: cell-based or functional assay.

Results on one substance are retold here after US20250289871A1.

Consider cilgavimab (AZD1061) (antibody), for which the results for the Authentic Virus Neutralization IC50 in assay [1] and in assay [2] were 0.014 µg/mL and 0.066 µg/mL, respectively.
